According to US20240279345A1, “ALPHA 5 BETA 1 INTEGRIN BINDING AGENTS AND USES THEREOF” (PASITHEA THERAPEUTICS CORP., priority 2021, published 2024):

B1: A-3A08 (antibody, V domains shown)
VH: QVQLKESGPGLVAPSQSLSITCTISGFSLTTYGVHWVRQPPGKGLEWLVVIWSDGSTTYNSALKSRLNITKDNSKSQVFLKMNSLQTDDTAMYYCVRHGGLLRRDAMDYWGQGTSVTVSS
VL: QIVLTQSPAIMSASLGERVTMTCTASSSVSSNSFHWYQQKPGSSPKLWLYSTSNLASGVPARFSGSGSGTSYSLTISSMEAEDAATYYCHQYLRSPPTFGGGTKLEIK
B2: C-8G11 (antibody, V domains shown)
VH: QVQLKESGPDLVAPSQSLSITCTVSGFSLTDYGVHWVRQPPGKGLEWLVVIWSDGSTTYNSALKSRLSITKDTSKRQVFLKMNSLQTDDTAMYYCARHAPSFIRYGSRYDALDYWGQGTSVTVSS
VL: QIVLTQSPAIMSASLGERVTLTCTASSSVTSSFLHWYQQKPGSSPKLWIYSTSNLASGVPARFSGSGSGTSYSLTISSMEAEDAATYYCHQYHRSPPTFGGGTKLEIK
notes: mouse hybridoma supernatant
B3: A-15B08 (antibody, V domains shown)
VH: QVQLKESGPGLVAPSQSLSITCTISGFSLTSYGVHWVRQPPGKGLEWLVVIWSDGSTTYNSTLKSRLSISKDNSKSQVFFKMNSLQTDDTAMYYCARHYDYDGDWFAYWGQGTLVTVSA
VL: QIVLTQSPAIMSASLGERVTMTCTASSRVSSNSLHWYQQKPGSSPKLWIYSTSNLASGVPARFSGSGSGTSYSLTISSMEAEDAATYYCHQYLRSPPTFGGGTKLEIK
notes: mouse hybridoma supernatant in this assay
B4: A2-8H11 (antibody, V domains shown)
VH: QVQLKESGPGLVAPSQSLSITCTISGFSLTTYGVHWVRQPPGKGLEWLVVIWSDGSTTYNSALKSRLNITKDNSKSQVFLKMNSLQTDDTAMYYCVRHGGLLRRDAMDYWGQGTSVTVSS
VL: QIVLTQSPAIMSASLGERVTMTCTASSSVSSNSFHWYQQKPGSSPKLWLYSTSNLASGVPARFSGSGSGTSYSLTISSMEAEDAATYYCHQYLRSPPTFGGGTKLEIK
notes: mouse hybridoma antibody
B5: A-11G01 (antibody, V domains shown)
VH: QVQLKESGPGLVAPSQSLSITCTISGFSLTTYGVHWVRQPPGKGLEWLVVIWSDGSTTYNSALKSRLNITKDNSKSQVFLKMNSLQTDDTAMYYCVRHGGLLRRDAMDYWGQGTSVTVSS
VL: QIVLTQSPAIMSASLGERVTMTCTASSSVSSNSFHWYQQKPGSSPKLWLYSTSNLASGVPARFSGSGSGTSYSLTISSMEAEDAATYYCHQYLRSPPTFGGGTKLEIK
notes: mouse hybridoma supernatant
B6: A2-9A11 (antibody, V domains shown)
VH: QVQLKESGPGLVAPSQSLSITCTISGFSLTTYGVHWVRQPPGKGLEWLVVIWSDGSTTYNSALKSRLNITKDNSKSQVFLKMNSLQTDDTAMYYCVRHGGLLRRDAMDYWGQGTSVTVSS
VL: QIVLTQSPAIMSASLGERVTMTCTASSSVSSNSFHWYQQKPGSSPKLWLYSTSNLASGVPARFSGSGSGTSYSLTISSMEAEDAATYYCHQYLRSPPTFGGGTKLEIK
notes: mouse hybridoma antibody
B7: A-3A08 (antibody, V domains shown)
VH: QVQLKESGPGLVAPSQSLSITCTISGFSLTTYGVHWVRQPPGKGLEWLVVIWSDGSTTYNSALKSRLNITKDNSKSQVFLKMNSLQTDDTAMYYCVRHGGLLRRDAMDYWGQGTSVTVSS
VL: QIVLTQSPAIMSASLGERVTMTCTASSSVSSNSFHWYQQKPGSSPKLWLYSTSNLASGVPARFSGSGSGTSYSLTISSMEAEDAATYYCHQYLRSPPTFGGGTKLEIK
notes: mouse hybridoma supernatant
B8: A2-6C10 (antibody, V domains shown)
VH: QVQLKESGPGLVAPSQSLSITCTISGFSLTTYGVHWVRQPPGKGLEWLVVIWSDGSTTYNSALKSRLNITKDNSKSQVFLKMNSLQTDDTAMYYCVRHGGLLRRDAMDYWGQGTSVTVSS
VL: QIVLTQSPAIMSASLGERVTMTCTASSSVSSNSFHWYQQKPGSSPKLWLYSTSNLASGVPARFSGSGSGTSYSLTISSMEAEDAATYYCHQYLRSPPTFGGGTKLEIK
notes: mouse hybridoma antibody
B9: C-14D12 (antibody, V domains shown)
VH: QVQLKESGPDLVAPSQSLSITCTVSGFSLTDYGVHWVRQPPGKGLEWLVVIWSDGSTTYNSALKSRLSITKDTSKRQVFLKMNSLQTDDTAMYYCARHAPSFIRYGSRYDALDYWGQGTSVTVSS
VL: QIVLTQSPAIMSASLGERVTLTCTASSSVTSSFLHWYQQKPGSSPKLWIYSTSNLASGVPARFSGSGSGTSYSLTISSMEAEDAATYYCHQYHRSPPTFGGGTKLEIK
notes: as for B3
B10: A-4G02 (antibody, V domains shown)
VH: QVQLKESGPGLVAPSQSLSITCTISGFSLTSYGVHWVRQPPGKGLEWLVVIWSDGSTTYNSTLKSRLSISKDNSKSQVFFKMNSLQTDDTAMYYCARHYDYDGDWFAYWGQGTLVTVSA
VL: QIVLTQSPAIMSASLGERVTMTCTASSRVSSNSLHWYQQKPGSSPKLWIYSTSNLASGVPARFSGSGSGTSYSLTISSMEAEDAATYYCHQYLRSPPTFGGGTKLEIK
notes: mouse hybridoma supernatant
B11: A-7D06 (antibody, V domains shown)
VH: QVQLKESGPGLVAPSQSLSITCTISGFSLTTYGVHWVRQPPGKGLEWLVVIWSDGSTTYNSALKSRLNITKDNSKSQVFLKMNSLQTDDTAMYYCVRHGGLLRRDAMDYWGQGTSVTVSS
VL: QIVLTQSPAIMSASLGERVTMTCTASSSVSSNSFHWYQQKPGSSPKLWLYSTSNLASGVPARFSGSGSGTSYSLTISSMEAEDAATYYCHQYLRSPPTFGGGTKLEIK
notes: mouse hybridoma supernatant
B12: A-14G08 (antibody, V domains shown)
VH: QVQLQQPGAELVKPGASVKLSCKASGYTFTIYWINWVKQRPGQGLEWIGKIYPGSISTDYNEKFKSKATLTVDTSSSTAYMQLSSLTSDDSAVYYCAITGTGGLAYWGQGTLVTVSA
VL: ENVLTQSPAIMSASLGEKVTMTCRASSSVNYMYWYQQKSDASPKLWIYFTSSLAPGVPGRFSGSGSGNSYSLTISTMEGEDAATYYCQQFTTSPFTFGSGTKLEIK
notes: mouse hybridoma supernatant
B13: A-15H11 (antibody, V domains shown)
VH: QVQLQQPGAELVKPGASVKLSCKASGYTFTIYWINWVKQRPGQGLEWIGKIYPGSISTDYNEKFKSKATLTVDTSSSTAYMQLSSLTSDDSAVYYCAITGTGGLAYWGQGTLVTVSA
VL: ENVLTQSPAIMSASLGEKVTMTCRASSSVNYMYWYQQKSDASPKLWIYFTSSLAPGVPGRFSGSGSGNSYSLTISTMEGEDAATYYCQQFTTSPFTFGSGTKLEIK
notes: mouse hybridoma supernatant

Tests used:
[1] = target: T1, recombinant mouse α5β1 integrin (mouse, UniProt P11688 45-999; P09055 21-728); assay: ELISA, coated integrin, supernatant 1:10
T1 construct: bought recombinant heterodimer (R&D Systems cat. 7728-A5) coated on the plate; also called rm-α5β1
Method: (§1) Plates were washed 3 times with Wash Buffer (1× Tris Buffered Saline containing 0.05% Tween20), blocked with 2% BSA in 1×TBS (made from 10× Thermo Scientific Blocker BSA (10×) in TBS; Thermo Fisher Scientific, Waltham, MA, cat. no. 37520) for 2 hours at room temperature (RT) then incubated with hybridoma supernatants diluted 1:10 with Standard Diluent (2% BSA, 1×TBS, 0.05% Tween20). […] Absorbance 450 nm was measured.

[2] = target: T2, recombinant human α4β1 integrin (human, UniProt P13612 34-977; P05556 21-728); assay: ELISA, coated integrin, supernatant 1:10
T2 construct: bought recombinant heterodimer (R&D Systems cat. 5668-A4) coated on the plate; also called rh-α4β1
T2 sequence (P13612 34-977 limits assumed, form in doubt, chain 1 of 2): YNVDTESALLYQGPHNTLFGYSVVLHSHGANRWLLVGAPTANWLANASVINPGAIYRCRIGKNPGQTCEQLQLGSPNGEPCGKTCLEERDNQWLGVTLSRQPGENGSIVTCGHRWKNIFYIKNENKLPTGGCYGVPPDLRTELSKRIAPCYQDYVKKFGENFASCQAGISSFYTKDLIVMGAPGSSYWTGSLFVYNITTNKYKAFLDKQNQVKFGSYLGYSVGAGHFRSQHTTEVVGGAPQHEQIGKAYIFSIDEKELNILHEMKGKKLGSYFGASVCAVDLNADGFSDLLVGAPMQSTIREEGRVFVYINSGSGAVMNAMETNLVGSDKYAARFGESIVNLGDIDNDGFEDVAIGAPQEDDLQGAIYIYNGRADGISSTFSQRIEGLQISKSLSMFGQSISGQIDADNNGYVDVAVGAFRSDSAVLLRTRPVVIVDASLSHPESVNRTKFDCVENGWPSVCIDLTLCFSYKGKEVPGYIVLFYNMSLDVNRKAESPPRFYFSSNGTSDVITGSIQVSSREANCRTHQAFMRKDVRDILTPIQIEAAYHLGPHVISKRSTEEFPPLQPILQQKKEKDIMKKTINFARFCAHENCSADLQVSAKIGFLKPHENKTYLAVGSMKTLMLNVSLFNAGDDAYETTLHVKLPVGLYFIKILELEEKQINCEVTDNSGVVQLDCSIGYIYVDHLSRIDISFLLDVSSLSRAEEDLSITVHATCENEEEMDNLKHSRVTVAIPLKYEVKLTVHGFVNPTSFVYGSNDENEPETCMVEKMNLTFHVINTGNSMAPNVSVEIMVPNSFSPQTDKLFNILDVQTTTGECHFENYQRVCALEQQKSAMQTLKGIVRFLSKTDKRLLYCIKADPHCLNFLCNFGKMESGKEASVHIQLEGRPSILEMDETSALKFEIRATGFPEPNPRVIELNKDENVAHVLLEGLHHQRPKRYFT
T2 sequence (P05556 21-728 limits assumed, form in doubt, chain 2 of 2): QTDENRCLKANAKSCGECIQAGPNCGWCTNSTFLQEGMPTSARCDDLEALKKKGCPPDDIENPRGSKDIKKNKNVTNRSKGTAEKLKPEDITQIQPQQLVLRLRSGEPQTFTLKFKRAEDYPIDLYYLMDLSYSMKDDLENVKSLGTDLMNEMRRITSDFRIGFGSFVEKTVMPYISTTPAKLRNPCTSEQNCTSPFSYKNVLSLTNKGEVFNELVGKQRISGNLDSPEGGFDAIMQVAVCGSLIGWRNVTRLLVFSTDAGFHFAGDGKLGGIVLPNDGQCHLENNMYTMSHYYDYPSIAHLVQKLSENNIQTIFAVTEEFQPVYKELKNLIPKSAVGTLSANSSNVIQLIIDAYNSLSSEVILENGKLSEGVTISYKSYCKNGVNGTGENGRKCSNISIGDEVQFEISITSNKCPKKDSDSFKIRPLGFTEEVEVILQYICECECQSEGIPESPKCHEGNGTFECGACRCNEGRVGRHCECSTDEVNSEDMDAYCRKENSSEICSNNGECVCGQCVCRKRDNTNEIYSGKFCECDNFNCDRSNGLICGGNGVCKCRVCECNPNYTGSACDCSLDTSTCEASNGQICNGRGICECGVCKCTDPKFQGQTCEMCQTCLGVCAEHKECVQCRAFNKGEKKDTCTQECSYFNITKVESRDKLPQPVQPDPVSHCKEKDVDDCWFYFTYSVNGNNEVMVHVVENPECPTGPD
Method: as §1

[3] = target: T3, recombinant human α5β1 integrin (human, UniProt P08648 42-995; P05556 21-728); assay: ELISA, coated integrin, supernatant 1:10
T3 construct: also called rh-α5β1
T3 sequence (P08648 42-995 limits assumed, form in doubt, chain 1 of 2): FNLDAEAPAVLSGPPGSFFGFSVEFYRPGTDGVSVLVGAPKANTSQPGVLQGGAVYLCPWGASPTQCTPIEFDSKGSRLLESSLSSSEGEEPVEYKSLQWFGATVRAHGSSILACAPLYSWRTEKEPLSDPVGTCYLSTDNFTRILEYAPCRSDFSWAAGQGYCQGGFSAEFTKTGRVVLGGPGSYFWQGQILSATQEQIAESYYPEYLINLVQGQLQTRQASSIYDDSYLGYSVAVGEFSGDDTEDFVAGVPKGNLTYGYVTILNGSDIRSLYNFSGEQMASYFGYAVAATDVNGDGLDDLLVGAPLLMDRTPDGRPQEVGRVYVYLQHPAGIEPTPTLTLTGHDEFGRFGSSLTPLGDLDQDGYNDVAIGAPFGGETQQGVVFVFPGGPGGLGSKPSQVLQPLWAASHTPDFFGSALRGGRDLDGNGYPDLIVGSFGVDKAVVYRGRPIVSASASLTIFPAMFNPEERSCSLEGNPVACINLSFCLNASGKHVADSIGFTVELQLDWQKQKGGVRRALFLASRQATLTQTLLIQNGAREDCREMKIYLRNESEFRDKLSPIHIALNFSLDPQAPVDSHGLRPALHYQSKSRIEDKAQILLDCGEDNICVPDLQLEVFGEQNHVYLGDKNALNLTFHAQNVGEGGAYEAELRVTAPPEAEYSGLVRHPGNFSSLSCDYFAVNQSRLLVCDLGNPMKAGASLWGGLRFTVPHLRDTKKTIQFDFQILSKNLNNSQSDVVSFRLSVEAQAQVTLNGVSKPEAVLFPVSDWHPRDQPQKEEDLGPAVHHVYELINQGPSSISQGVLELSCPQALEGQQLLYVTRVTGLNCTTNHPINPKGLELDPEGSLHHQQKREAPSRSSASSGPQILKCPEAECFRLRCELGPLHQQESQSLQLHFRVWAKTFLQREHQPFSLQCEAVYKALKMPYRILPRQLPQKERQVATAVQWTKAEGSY
T3 sequence (P05556 21-728 limits assumed, form in doubt, chain 2 of 2): as the sequence (P05556 21-728 limits assumed, form in doubt, chain 2 of 2) above
Method: as §1

[4] = target: T4, purified recombinant human α5β1 integrin heterodimer, 6×His tagged (rh-α5β1); Acro Biosystems, cat. no. … (human, UniProt P08648 42-995; P05556 21-728); assay: BLI (Octet), supernatant mAb on anti-mouse IgG Fc sensor, 20 nM rh-α5β1
T4 construct: bought recombinant heterodimer; also called rh-α5β1-6×His tagged protein; His-tagged-α5β1
T4 sequence (P08648 42-995 limits assumed, form in doubt, chain 1 of 2): as the sequence (P08648 42-995 limits assumed, form in doubt, chain 1 of 2) above
T4 sequence (P05556 21-728 limits assumed, form in doubt, chain 2 of 2): as the sequence (P05556 21-728 limits assumed, form in doubt, chain 2 of 2) above
From the text: Anti-Mouse IgG Fc biosensors were used to load each clone supernatant. Assay steps were as follows: Sensor Check (30s)-->Load Ab (700s)-->Quench (480s)-->Baseline(480s)-->Ab Assoc. (600s)-->Dissoc. (600s).

[5] = target: T5, recombinant human α5β1 integrin (rh-α5β1; R&D Systems, cat. no. 3230-A5) (human, UniProt P08648 42-995; P05556 21-728); assay: ELISA, coated rh-α5β1, supernatant 1:10
T5 construct: bought recombinant heterodimer
T5 sequence (P08648 42-995 limits assumed, form in doubt, chain 1 of 2): as the sequence (P08648 42-995 limits assumed, form in doubt, chain 1 of 2) above
T5 sequence (P05556 21-728 limits assumed, form in doubt, chain 2 of 2): as the sequence (P05556 21-728 limits assumed, form in doubt, chain 2 of 2) above
Method: as §1

Row | Binder | Absorbance 450 nm [1] [A450] | Absorbance 450 nm [2] [A450] | Absorbance 450 nm [3] [A450] | Kd [4] [nM] | koff [4] [s⁻¹] | kon [4] [M⁻¹ s⁻¹] | Absorbance 450 nm [5]
1 | B1 | 0.671 |  |  |  |  |  | 
2 | B2 | 0.0872 | 0.165 | 0.805 |  |  |  | 
3 | B3 | 0.0924 | 0.0855 | 0.824 |  |  |  | 
4 | B4 |  |  |  | 4.81 | 0.00139 | 289000 | 1.45
5 | B5 | 0.0766 | 0.0843 | 0.519 |  |  |  | 
6 | B6 |  |  |  | 5.02 | 0.00139 | 277000 | 1.91
7 | B7 |  | 0.0769 | 0.352 |  |  |  | 
8 | B8 |  |  |  | 3.5 | 0.000911 | 260000 | 2.01
9 | B9 | 0.17 | 0.171 | 0.702 |  |  |  | 
10 | B10 | 0.0959 | 0.0801 | 0.687 |  |  |  | 
11 | B11 | 0.0755 | 0.0848 | 0.613 |  |  |  | 
12 | B12 | 0.11 | 0.108 | 1.17 |  |  |  | 
13 | B13 | 0.0799 | 0.081 | 1.25 |  |  |  | 
